The values below come from patent US20170114117A1 (OREGON HEALTH AND SCIENCE UNIVERSITY, published 2017).

One assay deals with T1, RTL1000.
T1 construct: Coated onto ELISA plates at 1 µg/ml; also called recombinant T cell receptor ligand
Kind of assay: competition ELISA, RTL1000 coated, competitor against rmCD74 (50 nM), one-binding-site fit. On the procedure:
(§1) Competition of peptides with rmCD74 for binding to RTL1000 or DRα1mMOG35-55 was also tested. Briefly, 50 μl of 1 μg/ml either RTL1000 or DRα1mMOG-35-55 were coated onto ELISA plates at 25° C. for 2 hours. […] Serial 1:2 dilutions of α-helix 1 or α-helix 2 (starting with a concentration of 66 μM, 50 μg/ml each) were prepared in rmCD74 (in BSA/PBS, 50 nM, 0.5 ug/ml) and added to the plate. Competition for the binding site was allowed for 3 hours at 25° C. and then unbound complexes were washed 4 times with PBS/T20. Remaining rmCD74 bound to RTL1000 or DRα1mMOG-35-55 was detected by the PIN.1/anti-mouse IgG1-HRP at 1 ul/ml of both in BSA/PBS for 1.5 hours at 25° C. and visualized by adding TMB substrate (50 μl, according to the manufacturer's instructions). Color development was stopped with 0.1N HCl and the plate was read at 450 nm in an ELISA plate reader. Data were normalized and fitted to a one-binding site model and competitor concentration was plotted against Absorbance at 450 nm to determine the IC₅₀ of each peptide competitor. All data were analyzed using Prism software (GraphPad).
A general note: In an ELISA, binding on a coated surface is turned into a signal by an enzyme label.

Assay [1] concerns the target T2, DRα1-mMOG-35-55.
T2 construct: Coated onto ELISA plates at 1 µg/ml; also called DRa1mMOG-35-55; DRα1-MOG-35-55
Kind of assay: competition ELISA (FIG. 4, right panel), competitor against rmCD74 on DRα1-mMOG-35-55.

The target in assay [2] is T2, DRα1-mMOG-35-55. In words: competition ELISA, DRα1mMOG-35-55 coated, competitor against rmCD74 (50 nM), one-binding-site fit. The protocol:
as §1

In assay [3] the target is T3, human macrophage migration inhibitory factor (MIF) (human, UniProt P14174 2-115).
T3 construct: Coated onto ELISA plates at 0.5 µg/ml; also called hMIF; human MIF
Kind of assay: competition ELISA, hMIF coated, competitor against rmCD74 (0.5 µg/ml), two-binding-site fit. On the procedure:
(§2) The ability of α-helix 1 and α-helix 2 peptides to compete with MIF for binding to CD74 was tested. […] Wells were thoroughly washed with PBS/T20 and the mAb PIN.1/anti-mIgG1-HRP (at 0.5 μg/ml in 5% BSA/PBS each) was used to detect the remaining rmCD74 bound to MIF. This mAb recognizes an epitope located at the N-terminus of the protein. Color was developed after adding 50 μl of TMB for 5 minutes and the reaction was stopped with 50 μl of 0.1N HCl. Data was first normalized and then analyzed using GraphPad Prism software. IC₅₀ were calculated by fitting the curve to a competition model involving a two-binding site equation.

The target of assay [4] is T2, DRα1-mMOG-35-55. Kind of assay: competition ELISA (FIG. 4, left panel), competitor against rmCD74 on DRα1-mMOG-35-55.
Assay [5] deals with T2, DRα1-mMOG-35-55. Kind of assay: competition ELISA (FIG. 4), competitor against rmCD74 on DRα1mMOG-35-55.
The target of assay [6] is T3, human macrophage migration inhibitory …. In words: competition ELISA, hMIF coated, competitor against rmCD74. The protocol:
as §2

Ends that are not written are not given here.

B1: CD74 α-helix 2 peptide (SEQ ID NO: 4) (peptide)
peptide: KGSFPENLRHLKNTMET
notes: also called human CD74 α-helix 2; alpha helix 2
What is called IC50 is the concentration that gives 50% inhibition. With B1, the half-maximal inhibitory concentration (IC50) with RTL1000 came out at 34.3 µM; in the assay with DRα1-mMOG-35-55 [1], 24.5 µM; with DRα1-mMOG-35-55 [2], 167 µM; in assay [3] it was 114 µM. The values for the LogIC50 with RTL1000 and with DRα1-mMOG-35-55 [2] were 1.53 and 2.22, respectively.

B2: mixture of synthetic peptides SEQ ID NO: 2 (α-helix 1) and SEQ ID NO: 4 (α-helix 2) (other)
peptide 1: TEDHVMHLLQNAD
peptide 2: KGSFPENLRHLKNTMET
modifications: also: mixture of two separate peptides, not covalently linked
notes: A mixture of two separate peptides that are not covalently linked; In the hMIF assay the starting concentration was 33 µM of each peptide, 66 µM in total; also called α-helix 1 plus α-helix 2; combined peptides
On to B2, for which the results for the half-maximal inhibitory concentration (IC50) (with DRα1-mMOG-35-55 [4]; in the assay with DRα1-mMOG-35-55 [5]; in assay [3]) were 4.71 µM, 4.75 µM and 3.74 µM, respectively. Also, in assay [6], the “fold increase of the blocking effect against α-helix 1 alone” value amounted to 10 fold.

B3: CD74 α-helix 1 peptide (SEQ ID NO: 2) (peptide)
peptide: TEDHVMHLLQNAD
notes: also called human CD74 α-helix 1; alpha helix 1
For B3, the IC50 stood at 35 µM in the assay with DRα1-mMOG-35-55 [5]; 6.78 µM with RTL1000; 35 µM with DRα1-mMOG-35-55 [1]; 10.1 µM in the assay with DRα1-mMOG-35-55 [2]; 41.8 µM in assay [3]. Also, the LogIC50 in the assay with RTL1000 was 0.831; with DRα1-mMOG-35-55 [2], 1.
